From the supplement of paper PMC11246515 come the findings set out here.

This series in a line: total protein half-life in vivo (active degradation + dilution); higher = more stable protein.
The mark [1] stands for this setting: E. coli NCM3722 delta-clpP delta-lon delta-hslV, growth: N-lim chemostat, doubling time 6 h.
The mark [2] stands for this setting: E. coli NCM3722 delta-clpP, growth: N-lim chemostat, doubling time 6 h.
Where [3] appears, read: E. coli NCM3722 delta-hslV, growth: N-lim chemostat, doubling time 6 h.
The mark [4] stands for this setting: E. coli NCM3722 delta-lon, growth: N-lim chemostat, doubling time 6 h.
Where [5] appears, read: E. coli NCM3722 delta-smpB, growth: N-lim chemostat, doubling time 6 h.
Setting [6] is: wild type E. coli NCM3722, growth: C-lim chemostat, doubling time 3 h.
Where [7] appears, read: wild type E. coli NCM3722, growth: C-lim chemostat, doubling time 6 h.
The mark [8] stands for this setting: wild type E. coli NCM3722, growth: C-lim chemostat, doubling time 12 h.
Where [9] appears, read: wild type E. coli NCM3722, growth: N-lim chemostat, doubling time 6 h.
Where [10] appears, read: wild type E. coli NCM3722, growth: N-lim chemostat, doubling time 12 h.
Where [11] appears, read: wild type E. coli NCM3722, growth: P-lim chemostat, doubling time 6 h.
Setting [12] is: wild type E. coli NCM3722, growth: P-lim chemostat, doubling time 12 h.

± gives the standard deviation of the averaged measurements. Some results are limits rather than exact numbers.

“MSEQETRGANEAIDFNDELRNRREKLAALRQQGVAFPNDFRRDHTSDQLHEEFDAKDNQELESLNIEVSVAGRMMTRRIMGKASFVTLQDVGGRIQLYVARDSLPEGVYNDQFKKWDLGDIIGARGTLFKTQTGELSIHCTELRLLTKALRPLPDKFHGLQDQEVRYRQRYLDLIANDKSRQTFVVRSKILAAIRQFMVARGFMEVETPMMQVIPGGASARPFITHHNALDLDMYLRIAPELYLKRLVVGGFERVFEINRNFRNEGISVRHNPEFTMMELYMAYADYHDLIELTESLFRTLAQEVLGTTKVTYGEHVFDFGKPFEKLTMREAIKKYRPETDMADLDNFDAAKALAESIGITVEKSWGLGRIVTEIFDEVAEAHLIQPTFITEYPAEVSPLARRNDVNPEITDRFEFFIGGREIGNGFSELNDAEDQAERFQEQVNAKAAGDDEAMFYDEDYVTALEYGLPPTAGLGIGIDRMIMLFTNSHTIRDVILFPAMRPQK [P0A8N5]”: the “total protein half-life in vivo” value was 5.8 ± 0.78 h under setting [1]; 5.16 ± 0.085 h under setting [2]; 4.88 ± 0.071 h under setting [3]; 5.06 ± 0.16 h under setting [4]; 4.87 ± 0.087 h under setting [5]; 3.05 ± 0.11 h under setting [6]. The “total protein half-life in vivo” value was determined as 5.71 ± 0.27 h under setting [7]; 9.948 ± 0.028 h under setting [8]; 4.74 ± 0.36 h under setting [9]; 7.77 ± 0.82 h under setting [10]; 5.55 ± 0.27 h under setting [11]; 11.2 ± 0.22 h under setting [12].
In the case of “MAYSIGIDSGSTATKGILLADGVITRRFLVPTPFRPATAITEAWETLREGLETTPFLTLTGYGRQLVDFADKQVTEISCHGLGARFLAPATRAVIDIGGQDSKVIQLDDDGNLCDFLMNDKCAAGTGRFLEVISRTLGTSVEQLDSITENVTPHAITSMCTVFAESEAISLRSAGVAPEAILAGVINAMARRSANFIARLSCEAPILFTGGVSHCQKFARMLESHLRMPVNTHPDAQFAGAIGAAVIGQRVRTRR”, the “total protein half-life in vivo” value under setting [1] amounted to 4.12 h; the “total protein half-life in vivo” value under setting [2] is 4.27 h; the “total protein half-life in vivo” value under setting [6] came to 2.01 ± 0.18 h; the “total protein half-life in vivo” value under setting [7] amounted to 3.66 ± 0.33 h; the “total protein half-life in vivo” value under setting [8] was 6.35 ± 0.44 h.
As for “MVPSTFSRLKAARCLPVVLAALIFAGCGTHTPDQSTAYMQGTAQADSAFYLQQMQQSSDDTRINWQLLAIRALVKEGKTGQAVELFNQLPQELNDAQRREKTLLAVEIKLAQKDFAGAQNLLAKITPADLEQNQQARYWQAKIDASQGRPSIDLLRALIAQEPLLGAKEKQQNIDATWQALSSMTQEQANTLVINADENILQGWLDLQRVWFDNRNDPDMMKAGIADWQKRYPNNPGAKMLPTQLVNVKAFKPASTNKIALLLPLNGQAAVFGRTIQQGFEAAKNIGTQPVAAQVAAAPAADVAEQPQPQTVDGVASPAQASVSDLTGEQPAAQPVPVSAPATSTAAVSAPANPSAELKIYDTSSQPLSQILSQVQQDGASIVVGPLLKNNVEELLKSNTPLNVLALNQPENIENRVNICYFALSPEDEARDAARHIRDQGKQAPLVLIPRSSLGDRVANAFAQEWQKLGGGTVLQQKFGSTSELRAGVNGGSGIALTGSPITLRATTDSGMTTNNPTLQTTPTDDQFTNNGGRVDAVYIVATPGEIAFIKPMIAMRNGSQSGATLYASSRSAQGTAGPDFRLEMEGLQYSEIPMLAGGNLPLMQQALSAVNNDYSLARMYAMGVDAWSLANHFSQMRQVQGFEINGNTGSLTANPDCVINRNLSWLQYQQGQVVPVS”, the “total protein half-life in vivo” value came to 5.639 ± 0.023 h under setting [1]; 5.812 ± 0.034 h under setting [2]; 5.89 ± 0.37 h under setting [3]; 6.49 ± 0.16 h under setting [4]; 6.45 ± 0.83 h under setting [5]; 3.11 ± 0.16 h under setting [6]. The “total protein half-life in vivo” value reads like this: under setting [7], 5.614 ± 0.025 h; under setting [8], 11.2 ± 1 h; under setting [9], 6.03 ± 0.11 h; under setting [10], 13.1 ± 1.8 h; under setting [11], 5.91 ± 0.45 h; under setting [12], 11.5 ± 0.52 h.
Turning to “MSFVVIIPARYASTRLPGKPLVDINGKPMIVHVLERARESGAERIIVATDHEDVARAVEAAGGEVCMTRADHQSGTERLAEVVEKCAFSDDTVIVNVQGDEPMIPATIIRQVADNLAQRQVGMATLAVPIHNAEEAFNPNAVKVVLDAEGYALYFSRATIPWDRDRFAEGLETVGDNFLRHLGIYGYRAGFIRRYVNWQPSPLEHIEMLEQLRVLWYGEKIHVAVAQEVPGTGVDTPEDLERVRAEMR”, the “total protein half-life in vivo” value under setting [1] is 4.88 ± 0.51 h; the “total protein half-life in vivo” value under setting [2] was 4.7 ± 0.29 h; the “total protein half-life in vivo” value under setting [3] amounted to 4.68 ± 0.45 h; the “total protein half-life in vivo” value under setting [4] is 4.949 ± 0.04 h; the “total protein half-life in vivo” value under setting [5] came to 4.68 ± 0.18 h; the “total protein half-life in vivo” value under setting [6] was determined as 2.84 ± 0.45 h. Moreover, the “total protein half-life in vivo” value is, setting by setting: under setting [7], 6.6 ± 0.59 h; under setting [8], 10.8 ± 0.44 h; under setting [9], 4.72 ± 0.32 h; under setting [10], 7.79 ± 0.56 h; under setting [11], 5.81 ± 0.29 h; under setting [12], 12.6 ± 0.66 h.
With “MAYRDQPLGELALSIPRASALFRKYDMDYCCGGKQTLARAAARKELDVEVIEAELAKLAEQPIEKDWRSAPLAEIIDHIIVRYHDRHREQLPELILQATKVERVHADKPSVPKGLTKYLTMLHEELSSHMMKEEQILFPMIKQGMGSQAMGPISVMESEHDEAGELLEVIKHTTNNVTPPPEACTTWKAMYNGINELIDDLMDHISLENNVLFPRALAGE”, the “total protein half-life in vivo” value under setting [4] was more than 8 h, the “total protein half-life in vivo” value under setting [5] is 2.54 h and the “total protein half-life in vivo” value under setting [6] was determined as 2.72 h.
As for “MSIAVTTTDPTNTGVSTTSSSSLTGSNAADLQSSFLTLLVAQLKNQDPTNPMENNELTSQLAQISTVSGIEKLNTTLGSISGQIDNSQSLQASNLIGHGVMIPGTTVLAGTGSEEGAVTTTTPFGVELQQAADKVTATITDKNGAVVRTIDIGELTAGVHSFTWDGTLTDGSTAPNGSYNVAISASNGGTQLVAQPLQFALVQGVIRGNSGNTLDLGTYGTTTLDEVRQII”, the “total protein half-life in vivo” value by setting is: under setting [1], 3.99 ± 0.28 h; under setting [6], 0.36 ± 0.076 h; under setting [7], 1.65 h; under setting [8], 0.363 h.
Turning to “MPRSTWFKALLLLVALWAPLSQAETGWQPIQETIRKSDKDNRQYQAIRLDNGMVVLLVSDPQAVKSLSALVVPVGSLEDPEAYQGLAHYLEHMSLMGSKKYPQADSLAEYLKMHGGSHNASTAPYRTAFYLEVENDALPGAVDRLADAIAEPLLDKKYAERERNAVNAELTMARTRDGMRMAQVSAETINPAHPGSKFSGGNLETLSDKPGNPVQQALKDFHEKYYSANLMKAVIYSNKPLPELAKMAADTFGRVPNKESKKPEITVPVVTDAQKGIIIHYVPALPRKVLRVEFRIDNNSAKFRSKTDELITYLIGNRSPGTLSDWLQKQGLVEGISANSDPIVNGNSGVLAISASLTDKGLANRDQVVAAIFSYLNLLREKGIDKQYFDELANVLDIDFRYPSITRDMDYVEWLADTMIRVPVEHTLDAVNIADRYDAKAVKERLAMMTPQNARIWYISPKEPHNKTAYFVDAPYQVDKISAQTFADWQKKAADIALSLPELNPYIPDDFSLIKSEKKYDHPELIVDESNLRVVYAPSRYFASEPKADVSLILRNPKAMDSARNQVMFALNDYLAGLALDQLSNQASVGGISFSTNANNGLMVNANGYTQRLPQLFQALLEGYFSYTATEDQLEQAKSWYNQMMDSAEKGKAFEQAIMPAQMLSQVPYFSRDERRKILPSITLKEVLAYRDALKSGARPEFMVIGNMTEAQATTLARDVQKQLGADGSEWCRNKDVVVDKKQSVIFEKAGNSTDSALAAVFVPTGYDEYTSSAYSSLLGQIVQPWFYNQLRTEEQLGYAVFAFPMSVGRQWGMGFLLQSNDKQPSFLWERYKAFFPTAEAKLRAMKPDEFAQIQQAVITQMLQAPQTLGEEASKLSKDFDRGNMRFDSRDKIVAQIKLLTPQKLADFFHQAVVEPQGMAILSQISGSQNGKAEYVHPEGWKVWENVSALQQTMPLMSEKNE”, the “total protein half-life in vivo” value by setting is: under setting [1], 6.72 ± 0.29 h; under setting [2], 6.24 ± 0.52 h; under setting [3], 5.96 ± 0.35 h; under setting [4], 6.46 ± 0.14 h; under setting [5], 5.53 ± 0.073 h; under setting [6], 3.05 ± 0.33 h. The “total protein half-life in vivo” value is 5.91 ± 0.59 h under setting [7]; 11.5 ± 0.5 h under setting [8]; 6.17 ± 0.092 h under setting [9]; 11.7 ± 0.35 h under setting [10]; 5.28 ± 0.059 h under setting [11]; 11.1 ± 0.72 h under setting [12].
In the case of “MEKKIGFIGCGNMGKAILGGLIASGQVLPGQIWVYTPSPDKVAALHDQFGINAAESAQEVAQIADIIFAAVKPGIMIKVLSEITSSLNKDSLVVSIAAGVTLDQLARALGHDRKIIRAMPNTPALVNAGMTSVTPNALVTPEDTADVLNIFRCFGEAEVIAEPMIHPVVGVSGSSPAYVFMFIEAMADAAVLGGMPRAQAYKFAAQAVMGSAKMVLETGEHPGALKDMVCSPGGTTIEAVRVLEEKGFRAAVIEAMTKCMEKSEKLSKS [P0A9L8]”, the “total protein half-life in vivo” value runs as follows: under setting [1], 6.83 ± 1.6 h; under setting [2], 5.45 ± 0.76 h; under setting [3], 5.12 ± 0.073 h; under setting [4], 5.68 ± 0.49 h; under setting [5], 5.54 ± 0.52 h; under setting [6], 3.01 ± 0.19 h. Moreover, the “total protein half-life in vivo” value reads like this: under setting [7], 6.48 ± 1 h; under setting [8], 10.6 ± 2.5 h; under setting [9], 5.02 ± 0.91 h; under setting [10], 9.31 ± 1 h; under setting [11], 5.51 ± 0.83 h; under setting [12], 11.8 ± 0.66 h.
With “MKTVVFAYHDMGCLGIEALLAAGYEISAIFTHTDNPGEKAFYGSVARLAAERGIPVYAPDNVNHPLWVERIAQLSPDVIFSFYYRHLIYDEILQLAPAGAFNLHGSLLPKYRGRAPLNWVLVNGETETGVTLHRMVKRADAGAIVAQLRIAIAPDDIAITLHHKLCHAARQLLEQTLPAIKHGNILEIAQRENEATCFGRRTPDDSFLEWHKPASVLHNMVRAVADPWPGAFSYVGNQKFTVWSSRVHPHASKAQPGSVISVAPLLIACGDGALEIVTGQAGDGITMQGSQLAQTLGLVQGSRLNSQPACTARRRTRVLILGVNGFIGNHLTERLLREDHYEVYGLDIGSDAISRFLNHPHFHFVEGDISIHSEWIEYHVKKCDVVLPLVAIATPIEYTRNPLRVFELDFEENLRIIRYCVKYRKRIIFPSTSEVYGMCSDKYFDEDHSNLIVGPVNKPRWIYSVSKQLLDRVIWAYGEKEGLQFTLFRPFNWMGPRLDNLNAARIGSSRAITQLILNLVEGSPIKLIDGGKQKRCFTDIRDGIEALYRIIENAGNRCDGEIINIGNPENEASIEELGEMLLASFEKHPLRHHFPPFAGFRVVESSSYYGKGYQDVEHRKPSIRNAHRCLDWEPKIDMQETIDETLDFFLRTVDLTDKPS”, the “total protein half-life in vivo” value worked out at 5.15 ± 0.03 h under setting [1]; 3.11 ± 0.24 h under setting [2]; 2.84 ± 0.19 h under setting [3]; 3.86 ± 0.1 h under setting [4]; 3.13 ± 0.3 h under setting [5]; 4.8816 ± 0.00064 h under setting [7]. For the same sequence, the “total protein half-life in vivo” value under setting [8] came out at 10.4 ± 1.2 h; the “total protein half-life in vivo” value under setting [9] was found to be 2.93 ± 0.43 h; the “total protein half-life in vivo” value under setting [10] is 4.61 ± 0.62 h; the “total protein half-life in vivo” value under setting [11] was found to be 5.82 ± 0.22 h; the “total protein half-life in vivo” value under setting [12] was found to be 11.65 ± 0.019 h.
